The values that follow come from patent US20210214447A1 (SHANGHAI INSTITUTE OF MATERIA MEDICA CHINESE ACADEMY OF …, published 2021).

For test [1], the target named is T1, human AXL on the surface of tumor cells (human, UniProt P30530 26-894).
T1 construct: whole, on cells; endogenous protein of human tumor cell lines; the cell line is named under assay or readout; also called AXL on the cell surface
T1 sequence (looked up): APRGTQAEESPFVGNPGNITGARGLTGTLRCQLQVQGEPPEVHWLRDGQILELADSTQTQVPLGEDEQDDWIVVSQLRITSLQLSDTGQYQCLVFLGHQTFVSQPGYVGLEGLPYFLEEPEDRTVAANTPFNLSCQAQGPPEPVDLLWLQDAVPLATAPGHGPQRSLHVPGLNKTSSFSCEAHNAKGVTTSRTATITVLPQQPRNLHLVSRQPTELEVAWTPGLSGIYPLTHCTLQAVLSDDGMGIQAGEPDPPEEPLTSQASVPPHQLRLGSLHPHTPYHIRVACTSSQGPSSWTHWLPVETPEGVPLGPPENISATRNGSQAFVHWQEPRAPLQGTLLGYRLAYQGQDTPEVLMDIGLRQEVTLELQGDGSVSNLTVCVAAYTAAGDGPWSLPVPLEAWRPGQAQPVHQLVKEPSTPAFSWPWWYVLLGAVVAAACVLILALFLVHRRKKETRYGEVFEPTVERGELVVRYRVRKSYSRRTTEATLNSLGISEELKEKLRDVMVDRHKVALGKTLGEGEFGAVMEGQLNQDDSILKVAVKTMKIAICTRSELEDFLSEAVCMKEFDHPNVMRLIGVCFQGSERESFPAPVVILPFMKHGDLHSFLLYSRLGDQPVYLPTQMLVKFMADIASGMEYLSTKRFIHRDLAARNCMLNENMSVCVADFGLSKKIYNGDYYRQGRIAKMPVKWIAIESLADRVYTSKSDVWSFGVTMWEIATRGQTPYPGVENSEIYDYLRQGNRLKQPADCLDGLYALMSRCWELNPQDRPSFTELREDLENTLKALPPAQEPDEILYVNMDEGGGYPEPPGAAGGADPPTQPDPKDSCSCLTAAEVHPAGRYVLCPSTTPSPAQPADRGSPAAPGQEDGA
The experiment in a line: FACS on MDA-MB-231 cells. As to the method: Then the obtained solutions were incubated at 4° C. for 1 h, the cells were washed twice with PBS to remove unbound primary antibody, and then the target cells were incubated with 200 μL PE-labeled secondary antibody (2 μg/mL) at 4° C. for 30 min. The cells were washed twice with PBS to remove unbound secondary antibody. Finally, the cells were resuspended in 200 μL PBS, and the binding affinity of the test antibody to AXL on the cell surface was determined by a flow cytometer (FACSCalibur)
24 humanized antibodies in Table-6 were diluted by gradient, and their affinities to AXL, on the surface of MDA-MB-231 cells were determined by flow cytometer. The experimental method was referred to Example 8.

Test [2] concerns the target T2, extracellular domain of human AXL protein (AXL-ECD) (human, UniProt P30530 31-449).
T2 construct: expressed in HEK293T cells; coated on the ELISA plate; also called AXL-ECD protein; human AXL extracellular domain protein
T2 sequence: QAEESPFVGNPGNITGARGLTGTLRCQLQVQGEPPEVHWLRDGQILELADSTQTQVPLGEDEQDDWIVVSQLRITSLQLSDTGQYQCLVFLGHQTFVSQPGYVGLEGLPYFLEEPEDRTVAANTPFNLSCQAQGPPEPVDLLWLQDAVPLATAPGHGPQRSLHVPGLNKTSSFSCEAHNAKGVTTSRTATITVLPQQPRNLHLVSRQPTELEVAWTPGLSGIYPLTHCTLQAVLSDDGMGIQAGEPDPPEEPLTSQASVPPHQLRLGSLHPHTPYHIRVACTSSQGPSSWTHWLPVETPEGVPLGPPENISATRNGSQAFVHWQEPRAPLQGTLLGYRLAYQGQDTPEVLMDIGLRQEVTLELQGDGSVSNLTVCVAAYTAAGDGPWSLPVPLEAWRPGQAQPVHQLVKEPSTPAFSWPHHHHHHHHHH
Put plainly: ELISA, plate-coated AXL-ECD. As to the method:
The extracellular domain of AXL protein (AXL-ECD) was diluted to […] with the coating solution, and coated onto ELISA plate with 100 μL/well at 4° C. overnight. The excess antigen was washed off. The plate was blocked with 1% BSA at room temperature for 2 h, then each monoclonal antibody in a 3-fold dilution was added at 100 µL/well. The plate was incubated at room temperature for 1 h; the unbound antibody was washed off, and appropriate concentration of anti-mouse secondary antibody labeled with horseradish peroxidase was added at 100 µL/well. The plate was incubated at room temperature for 0.5 h. The unbound secondary antibody was washed off. TMB Substrate was added and reacted for about 15 minutes. 1N HCL was added at 50 µL/well to stop the color reaction. Then the absorbance was measured at 450 nm and the obtained data was analyzed.
24 humanized antibodies in Table-6 were diluted by gradient, and their affinity to AXL-ECD protein was determined by ELISA. The experimental method was referred to Example 4.
Background: In an ELISA, binding on a coated surface is turned into a signal by an enzyme label.

B1: Hu002-3 (antibody, V domains shown)
VH: QVQLVQSGAEVKKPGASVKVSCKASGYPFTDFYINWVKQAPGQGLEWIGWIYPGSGNTKYNEKFKGRVTLTVDTSISTAYMELSRLRSDDTAVYYCARSTGFFDYWGQGTLVTVSS
VL: EIVLTQSPATLSLSPGERATLSCSASSSIGYMYWYQQKPGQAPRLLIYLTSNLASGIPARFSGSGSGTDFTLTISSLEPEDFAVYYCQQWSSNPPTFGQGTKLEIK
notes: humanized from mAb002c; also called Hu002c-3
The EC50 is the concentration at which the effect is half-maximal. Read a low EC50 as higher potency in that assay. On to B1, for which, in test [1], a half-maximal effect (EC50) was put at 0.108 nM and the “Highest MFI value (FACSCalibur)” value was 277 MFI. Also, in test [2], the EC50 amounted to 0.048 nM and the “TOP (OD450)” value was 3.6 OD450.

B2: Hu002-17 (antibody, V domains shown)
VH: QVQLVQSGAEVKKPGASVKVSCKASGYPFTDFYINWVRQAPGQGLEWMGWIYPGSGNTKYNEKFKGRVTLTVDTSISTAYMELSRLRSDDTAVYYCARSTGFFDYWGQGTLVTVSS
VL: EIVLTQSPDFQSVTPKEKVTITCSASSSIGYMYWYQQKPDQSPKLLIYLTSNLASGVPSRFSGSGSGTDYTLTINSLEAEDAATYYCQQWSSNPPTFGQGTKLEIK
notes: humanized from mAb002c; also called Hu002c-17
With B2, in test [1], a half-maximal response (EC50) required 0.107 nM and the “Highest MFI value (FACSCalibur)” value was 269 MFI. Also, in test [2], a half-maximal response (EC50) required 0.045 nM and the “TOP (OD450)” value came out at 3.71 OD450.

B3: Hu002-13 (antibody, V domains shown)
VH: QVQLVQSGAEVKKPGASVKVSCKASGYPFTDFYINWVRQAPGQGLEWMGWIYPGSGNTKYNEKFKGRVTMTRDTSISTAYMELSRLRSDDTAVYYCARSTGFFDYWGQGTLVTVSS
VL: EIVLTQSPDFQSVTPKEKVTITCSASSSIGYMYWYQQKPDQSPKLLIKLTSNLASGVPSRFSGSGSGTDFTLTINSLEAEDAATYYCQQWSSNPPTFGQGTKLEIK
notes: humanized from mAb002c; also called Hu002c-13
With B3, in test [1], the midpoint of the response, the EC50, lay at 0.073 nM and the “Highest MFI value (FACSCalibur)” value amounted to 262 MFI. In test [2], it took 0.047 nM to reach a half-maximal effect (EC50) and the “TOP (OD450)” value was 3.73 OD450.

B4: Hu002-9 (antibody, V domains shown)
VH: QVQLVQSGAEVKKPGASVKVSCKASGYPFTDFYINWVKQAPGQGLEWIGWIYPGSGNTKYNEKFKGRVTLTVDTSISTAYMELSRLRSDDTAVYYCARSTGFFDYWGQGTLVTVSS
VL: EIVLTQSPATLSLSPGERATLSCSASSSIGYMYWYQQKPGQSPRSLIYLTSNLASGIPARFSGSGSGTDYTLTISSLEPEDFAVYYCQQWSSNPPTFGQGTKLEIK
notes: humanized from mAb002c; also called Hu002c-9
For B4, in test [1], the EC50 amounted to 0.121 nM and the “Highest MFI value (FACSCalibur)” value is 268 MFI. For the same molecule, in test [2], a half-maximal effect (EC50) was put at 0.067 nM and the “TOP (OD450)” value is 3.62 OD450.

B5: Hu002-6 (antibody, V domains shown)
VH: QVQLVQSGAEVKKPGASVKVSCKASGYPFTDFYINWVKQAPGQGLEWIGWIYPGSGNTKYNEKFKGRVTLTVDTSISTAYMELSRLRSDDTAVYYCARSTGFFDYWGQGTLVTVSS
VL: EIVLTQSPATLSLSPGERATLSCSASSSIGYMYWYQQKPGQAPRLLIYLTSNLASGIPARFSGSGSGTDYTLTISSLEPEDFAVYYCQQWSSNPPTFGQGTKLEIK
notes: humanized from mAb002c; also called Hu002c-6
Consider B5, for which, in test [1], the EC50 amounted to 0.101 nM and the “Highest MFI value (FACSCalibur)” value came to 271 MFI. Besides, in test [2], the EC50 worked out at 0.052 nM and the “TOP (OD450)” value stood at 3.63 OD450.

B6: Hu002-10 (antibody, V domains shown)
VH: QVQLVQSGAEVKKPGASVKVSCKASGYPFTDFYINWVRQAPGQGLEWMGWIYPGSGNTKYNEKFKGRVTMTRDTSISTAYMELSRLRSDDTAVYYCARSTGFFDYWGQGTLVTVSS
VL: QIVLTQSPATLSLSPGERATLSCSASSSIGYMYWYQQKPGQSPRSLIYLTSNLASGIPARFSGSGSGTDYTLTISSLEPEDFAVYYCQQWSSNPPTFGQGTKLEIK
notes: humanized from mAb002c; also called Hu002c-10
B6: in test [1], the EC50 was determined as 0.118 nM and the “Highest MFI value (FACSCalibur)” value was determined as 273 MFI. In addition, in test [2], the EC50 worked out at 0.068 nM and the “TOP (OD450)” value came out at 3.58 OD450.

B7: Hu002-8 (antibody, V domains shown)
VH: QVQLVQSGAEVKKPGASVKVSCKASGYPFTDFYINWVRQAPGQGLEWMGWIYPGSGNTKYNEKFKGRVTLTVDTSISTAYMELSRLRSDDTAVYYCARSTGFFDYWGQGTLVTVSS
VL: EIVLTQSPATLSLSPGERATLSCSASSSIGYMYWYQQKPGQSPRSLIYLTSNLASGIPARFSGSGSGTDYTLTISSLEPEDFAVYYCQQWSSNPPTFGQGTKLEIK
notes: humanized from mAb002c; also called Hu002c-8
As for B7, in test [1], the EC50 was 0.138 nM and the “Highest MFI value (FACSCalibur)” value is 270 MFI. Moreover, in test [2], the response was half-maximal at 0.049 nM (EC50) and the “TOP (OD450)” value worked out at 3.59 OD450.

B8: Hu002-14 (antibody, V domains shown)
VH: QVQLVQSGAEVKKPGASVKVSCKASGYPFTDFYINWVRQAPGQGLEWMGWIYPGSGNTKYNEKFKGRVTLTVDTSISTAYMELSRLRSDDTAVYYCARSTGFFDYWGQGTLVTVSS
VL: EIVLTQSPDFQSVTPKEKVTITCSASSSIGYMYWYQQKPDQSPKLLIKLTSNLASGVPSRFSGSGSGTDFTLTINSLEAEDAATYYCQQWSSNPPTFGQGTKLEIK
notes: humanized from mAb002c; also called Hu002c-14
B8: in test [1], the response was half-maximal at 0.094 nM (EC50) and the “Highest MFI value (FACSCalibur)” value stood at 264 MFI. Besides, in test [2], the EC50 was 0.052 nM and the “TOP (OD450)” value is 3.72 OD450.

B9: Hu002-11 (antibody, V domains shown)
VH: QVQLVQSGAEVKKPGASVKVSCKASGYPFTDFYINWVRQAPGQGLEWMGWIYPGSGNTKYNEKFKGRVTLTVDTSISTAYMELSRLRSDDTAVYYCARSTGFFDYWGQGTLVTVSS
VL: QIVLTQSPATLSLSPGERATLSCSASSSIGYMYWYQQKPGQSPRSLIYLTSNLASGIPARFSGSGSGTDYTLTISSLEPEDFAVYYCQQWSSNPPTFGQGTKLEIK
notes: humanized from mAb002c; also called Hu002c-11
Take B9: in test [1], the EC50 is 0.123 nM and the “Highest MFI value (FACSCalibur)” value came to 271 MFI. Also, in test [2], the EC50 was 0.043 nM and the “TOP (OD450)” value was 3.74 OD450.

B10: Hu002-12 (antibody, V domains shown)
VH: QVQLVQSGAEVKKPGASVKVSCKASGYPFTDFYINWVKQAPGQGLEWIGWIYPGSGNTKYNEKFKGRVTLTVDTSISTAYMELSRLRSDDTAVYYCARSTGFFDYWGQGTLVTVSS
VL: QIVLTQSPATLSLSPGERATLSCSASSSIGYMYWYQQKPGQSPRSLIYLTSNLASGIPARFSGSGSGTDYTLTISSLEPEDFAVYYCQQWSSNPPTFGQGTKLEIK
notes: humanized from mAb002c; also called Hu002c-12
For the molecule B10, in test [1], the midpoint of the response, the EC50, lay at 0.116 nM and the “Highest MFI value (FACSCalibur)” value is 261 MFI. Moreover, in test [2], it took 0.045 nM to reach a half-maximal effect (EC50) and the “TOP (OD450)” value came out at 3.73 OD450.

B11: Hu002-7 (antibody, V domains shown)
VH: QVQLVQSGAEVKKPGASVKVSCKASGYPFTDFYINWVRQAPGQGLEWMGWIYPGSGNTKYNEKFKGRVTMTRDTSISTAYMELSRLRSDDTAVYYCARSTGFFDYWGQGTLVTVSS
VL: EIVLTQSPATLSLSPGERATLSCSASSSIGYMYWYQQKPGQSPRSLIYLTSNLASGIPARFSGSGSGTDYTLTISSLEPEDFAVYYCQQWSSNPPTFGQGTKLEIK
notes: humanized from mAb002c; also called Hu002c-7
For the molecule B11, in test [1], it took 0.129 nM to reach a half-maximal effect (EC50) and the “Highest MFI value (FACSCalibur)” value came to 275 MFI. Also, in test [2], the midpoint of the response, the EC50, lay at 0.058 nM and the “TOP (OD450)” value was 3.59 OD450.
